{"source": "patent US20160304571", "proteins": {"B1": {"name": "USP15 (protein)", "chain": "MAEGGAADLDTQRSDIATLLKTSLRKGDTWYLVDSRWFKQWKKYVGFDSWDKYQMGDQNVYPGPIDNSGLLKDGDAQSLKEHLIDELDYILLPTEGWNKLVSWYTLMEGQEPIARKVVEQGMFVKHCKVEVYLTELKLCENGNMNNVVTRRFSKADTIDTIEKEIRKIFSIPDEKETRLWNKYMSNTFEPLNKPDSTIQDAGLYQGQVLVIEQKNEDGTWPRGPSTPKSPGASNFSTLPKISPSSLSNNYNNMNNRNVKNSNYCLPSYTAYKNYDYSEPGRNNEQPGLCGLSNLGNTCFMNSAIQCLSNTPPLTEYFLNDKYQEELNFDNPLGMRGEIAKSYAELIKQMWSGKFSYVTPRAFKTQVGRFAPQFSGYQQQDCQELLAFLLDGLHEDLNRIRKKPYIQLKDADGRPDKVVAEEAWENHLKRNDSIIVDIFHGLFKSTLVCPECAKISVTFDPFCYLTLPLPMKKERTLEVYLVRMDPLTKPMQYKVVVPKIGNILDLCTALSALSGIPADKMIVTDIYNHRFHRIFAMDENLSSIMERDDIYVFEININRTEDTEHVIIPVCLREKFRHSSYTHHTGSSLFGQPFLMAVPRNNTEDKLYNLLLLRMCRYVKISTETEETEGSLHCCKDQNINGNGPNGIHEEGSPSEMETDEPDDESSQDQELPSENENSQSEDSVGGDNDSENGLCTEDTCKGQLTGHKKRLFTFQFNNLGNTDINYIKDDTRHIRFDDRQLRLDERSFLALDWDPDLKKRYFDENAAEDFEKHESVEYKPPKKPFVKLKDCIELFTTKEKLGAEDPWYCPNCKEHQQATKKLDLWSLPPVLVVHLKRFSYSRYMRDKLDTLVDFPINDLDMSEFLINPNAGPCRYNLIAVSNHYGGMGGGHYTAFAKNKDDGKWYYFDDSSVSTASEDQIVSKAAYVLFYQRQDTFSGTGFFPLDRETKGASAATGIPLESDEDSNDNDNDIENENCMHTN"}}, "key": {"[1]": {"biological_target": "Lys63-linked diubiquitin (enzymatically assembled), P0CG48", "sequence (P0CG48 whole entry, looked up)": "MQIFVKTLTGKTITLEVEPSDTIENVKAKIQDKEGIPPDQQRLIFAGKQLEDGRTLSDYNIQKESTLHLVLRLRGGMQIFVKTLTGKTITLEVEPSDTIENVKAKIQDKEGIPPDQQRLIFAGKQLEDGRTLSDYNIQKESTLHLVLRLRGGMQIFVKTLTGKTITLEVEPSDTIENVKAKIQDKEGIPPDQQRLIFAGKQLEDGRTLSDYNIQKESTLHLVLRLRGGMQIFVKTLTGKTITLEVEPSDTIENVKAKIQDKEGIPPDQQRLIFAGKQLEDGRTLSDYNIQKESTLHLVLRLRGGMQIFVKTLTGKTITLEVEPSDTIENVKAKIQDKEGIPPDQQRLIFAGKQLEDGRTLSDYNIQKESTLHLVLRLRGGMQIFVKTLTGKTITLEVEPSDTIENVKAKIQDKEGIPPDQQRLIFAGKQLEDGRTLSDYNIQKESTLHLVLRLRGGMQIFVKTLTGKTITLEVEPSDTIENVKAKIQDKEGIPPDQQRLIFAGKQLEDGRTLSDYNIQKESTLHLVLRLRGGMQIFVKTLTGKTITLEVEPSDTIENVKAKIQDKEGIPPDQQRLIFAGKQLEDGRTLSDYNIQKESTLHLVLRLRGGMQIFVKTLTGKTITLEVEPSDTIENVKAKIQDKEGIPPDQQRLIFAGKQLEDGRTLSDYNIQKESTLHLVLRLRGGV"}, "[2]": {"biological_target": "Lys6-linked diubiquitin, P0CG48", "sequence (P0CG48 whole entry, looked up)": "as above"}, "[3]": {"biological_target": "Lys29-linked diubiquitin, P0CG48", "sequence (P0CG48 whole entry, looked up)": "as above"}}, "data": [{"protein": "B1", "values": [{"measurement": "cleavage in in vitro deubiquitinase assay (SDS-PAGE)", "setting": "[1]", "value": "disassembled this chain type as efficiently as K63-linked chains"}, {"measurement": "cleavage in in vitro deubiquitinase assay (SDS-PAGE)", "setting": "[2]", "value": "disassembled this chain type as efficiently as K63-linked chains"}, {"measurement": "cleavage in in vitro deubiquitinase assay (SDS-PAGE)", "setting": "[3]", "value": "appreciably higher resistance to hydrolysis by USP2, USP15 and USP21 than K6- and K63-linked ubiquitin"}]}]}
